These results are taken from PMC4381055.

In series [1] the target is EcoRNAP sigma70 holoenzyme (Escherichia coli) (UniProt P0A7Z4+P0A8V2+P0A8T7+P0A800+P00579). The series can be described thus: stopped-flow Cy3 fluorescence enhancement. The following applies: scale: fold fluorescence enhancement.
Series [2] has as its target EcoRNAP sigma70 holoenzyme (Escherichia coli, UniProt P0A7Z4;P0A8V2;P0A8T7;P0A800;P00579 1-329;1-1342;1-1407;2-91;1-613). Nature of the series: 25 C, no CarD.

Regarding template lacking rrnAP3 promoter, Cy3, the binding signal in series [1] was 0.05.

B1: rrnAP3 150 bp template, +2 Cy3 (dsDNA)
DNA 1: AAAATAGGCGTATCACGAGGCCCTTTCGTCTTCAAGAATTCGTCTTGACTCCATTGCCGGATTTGTATTAGACTGGCAGGGTTGAAGCTTATGTATCACCTGACGTCATGATGAACTCAGAAGTGAAACTACGTATATCCGATGGTAGTG
DNA 2: CACTACCATCGGATATACGTAGTTTCACTTCTGAGTTCATCATGACGTCAGGTGATACATAAGCTTCAACCCTGCCAGTCTAATACAAATCCGGCAATGGAGTCAAGACGAATTCTTGAAGACGAAAGGGCCTCGTGATACGCCTATTTT
modifications: C6-amine on non-template +2 T
In the case of B1, the “apparent K (half saturation)” value in series [2] came to 23 nM.
